The results in this text go back to paper PMC10786891, “Massively parallel profiling of RNA-targeting CRISPR-Cas13d”.

Substitutions are numbered along the chain they refer to. Numbers in names are those of the source.

To fix the notation:
T1: EsCas13d, nuclease-dead (Eubacterium siraeum, UniProt B0MS50, R295A;H300A;R849A;H854A)
T1 sequence: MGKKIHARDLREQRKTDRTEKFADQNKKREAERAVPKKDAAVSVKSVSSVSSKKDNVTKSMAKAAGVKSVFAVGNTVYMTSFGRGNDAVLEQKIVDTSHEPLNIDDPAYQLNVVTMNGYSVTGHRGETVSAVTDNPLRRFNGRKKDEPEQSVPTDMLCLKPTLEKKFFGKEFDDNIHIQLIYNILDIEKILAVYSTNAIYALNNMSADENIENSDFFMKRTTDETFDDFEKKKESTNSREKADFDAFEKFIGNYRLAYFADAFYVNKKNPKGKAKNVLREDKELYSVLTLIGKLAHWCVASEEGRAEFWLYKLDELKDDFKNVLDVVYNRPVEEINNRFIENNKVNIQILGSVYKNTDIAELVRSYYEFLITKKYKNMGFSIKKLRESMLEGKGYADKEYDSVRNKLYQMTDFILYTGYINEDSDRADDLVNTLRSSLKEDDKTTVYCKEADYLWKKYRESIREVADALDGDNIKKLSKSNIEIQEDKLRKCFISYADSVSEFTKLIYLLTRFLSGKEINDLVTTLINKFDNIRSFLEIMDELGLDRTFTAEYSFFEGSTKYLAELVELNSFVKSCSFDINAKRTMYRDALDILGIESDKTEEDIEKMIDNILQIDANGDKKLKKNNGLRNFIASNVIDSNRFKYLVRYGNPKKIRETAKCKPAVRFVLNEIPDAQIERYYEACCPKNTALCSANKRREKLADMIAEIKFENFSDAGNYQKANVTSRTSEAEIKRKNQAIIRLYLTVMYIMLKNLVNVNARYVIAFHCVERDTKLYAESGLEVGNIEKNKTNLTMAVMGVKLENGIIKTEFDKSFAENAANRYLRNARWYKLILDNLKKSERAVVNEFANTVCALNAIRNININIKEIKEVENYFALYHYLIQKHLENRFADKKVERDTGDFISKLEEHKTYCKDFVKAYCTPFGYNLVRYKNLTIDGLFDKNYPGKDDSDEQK

B1: target 1 MT 5'PFS UGC 3'PFS UAG (mixed)
RNA 1: CACCCGUGCAAAAAUGCAGGGGUCUAAAACUGAGCGGAUAACCUCUCUAUGG
RNA 2: GGGAAUGGAUCCACAUCUACGAAUUCUGCCCAUAGAGAGGUUAUCCGCUCAUAGAGAUCGGAAGAGCACACGU
B2: target 1 MT 5'PFS ACU 3'PFS UAU (mixed)
RNA 1: B1 RNA 1
RNA 2: B1 RNA 2 with U27A, G28C, C29U, G54U
B3: target 1 G13A,C22A (mixed)
RNA 1: B1 RNA 1
RNA 2: B1 RNA 2 with U27G, G28U, C29A, C30A, G39A, U52C, A53C
B4: target 1 MT 5'PFS GGG 3'PFS CUC (mixed)
RNA 1: B1 RNA 1
RNA 2: B1 RNA 2 with U27G, C29G, U52C, A53U, G54C
B5: target 1 complement block 10-13 (mixed)
RNA 1: B1 RNA 1
RNA 2: B1 RNA 2 with U27G, G28U, C29A, G39C, G40C, U41A, U42A, U52C, A53C
B6: target 1 MT 5'PFS UAU 3'PFS AUA (mixed)
RNA 1: B1 RNA 1
RNA 2: B1 RNA 2 with G28A, C29U, U52A, A53U, G54A
B7: target 1 MT 5'PFS UCG 3'PFS CUC (mixed)
RNA 1: B1 RNA 1
RNA 2: B1 RNA 2 with G28C, C29G, U52C, A53U, G54C
B8: target 1 MT 5'PFS GCG 3'PFS AUA (mixed)
RNA 1: B1 RNA 1
RNA 2: B1 RNA 2 with U27G, G28C, C29G, U52A, A53U, G54A
B9: target 1 MT 5'PFS GGG 3'PFS CUG (mixed)
RNA 1: B1 RNA 1
RNA 2: B1 RNA 2 with U27G, C29G, U52C, A53U
B10: target 1 MT 5'PFS UGC 3'PFS UAA (mixed)
RNA 1: B1 RNA 1
RNA 2: B1 RNA 2 with G54A
B11: target 1 MT 5'PFS CAC 3'PFS AUA (mixed)
RNA 1: B1 RNA 1
RNA 2: B1 RNA 2 with U27C, G28A, U52A, A53U, G54A
B12: target 1 MT 5'PFS UCG 3'PFS UUC (mixed)
RNA 1: B1 RNA 1
RNA 2: B1 RNA 2 with G28C, C29G, A53U, G54C
B13: target 1 MT 5'PFS GCG 3'PFS AUC (mixed)
RNA 1: B1 RNA 1
RNA 2: B1 RNA 2 with U27G, G28C, C29G, U52A, A53U, G54C
B14: target 1 MT 5'PFS GAG 3'PFS CCG (mixed)
RNA 1: B1 RNA 1
RNA 2: B1 RNA 2 with U27G, G28A, C29G, U52C, A53C
B15: target 1 MT 5'PFS UCG 3'PFS UUG (mixed)
RNA 1: B1 RNA 1
RNA 2: B1 RNA 2 with G28C, C29G, A53U
B16: target 1 MT 5'PFS GCG 3'PFS AUG (mixed)
RNA 1: B1 RNA 1
RNA 2: B1 RNA 2 with U27G, G28C, C29G, U52A, A53U
B17: target 1 MT 5'PFS CAC 3'PFS AUC (mixed)
RNA 1: B1 RNA 1
RNA 2: B1 RNA 2 with U27C, G28A, U52A, A53U, G54C
B18: target 1 MT 5'PFS UCG 3'PFS CUG (mixed)
RNA 1: B1 RNA 1
RNA 2: B1 RNA 2 with G28C, C29G, U52C, A53U
B19: target 1 MT 5'PFS UUU 3'PFS UCC (mixed)
RNA 1: B1 RNA 1
RNA 2: B1 RNA 2 with G28U, C29U, A53C, G54C
B20: target 1 MT 5'PFS AAG 3'PFS UAU (mixed)
RNA 1: B1 RNA 1
RNA 2: B1 RNA 2 with U27A, G28A, C29G, G54U
B21: target 1 MT 5'PFS UAU 3'PFS AUC (mixed)
RNA 1: B1 RNA 1
RNA 2: B1 RNA 2 with G28A, C29U, U52A, A53U, G54C
B22: target 1 MT 5'PFS AAC 3'PFS CGG (mixed)
RNA 1: B1 RNA 1
RNA 2: B1 RNA 2 with U27A, G28A, U52C, A53G
B23: target 1 MT 5'PFS UCG 3'PFS UUA (mixed)
RNA 1: B1 RNA 1
RNA 2: B1 RNA 2 with G28C, C29G, A53U, G54A
B24: target 1 MT 5'PFS CUG 3'PFS CGG (mixed)
RNA 1: B1 RNA 1
RNA 2: B1 RNA 2 with U27C, G28U, C29G, U52C, A53G
B25: target 1 MT 5'PFS CCU 3'PFS CCG (mixed)
RNA 1: B1 RNA 1
RNA 2: B1 RNA 2 with U27C, G28C, C29U, U52C, A53C
B26: target 1 MT 5'PFS CUG 3'PFS CGU (mixed)
RNA 1: B1 RNA 1
RNA 2: B1 RNA 2 with U27C, G28U, C29G, U52C, A53G, G54U
B27: target 1 MT 5'PFS ACG 3'PFS CGA (mixed)
RNA 1: B1 RNA 1
RNA 2: B1 RNA 2 with U27A, G28C, C29G, U52C, A53G, G54A
B28: target 1 insC 3' of 19,insA 3' of 12 (mixed)
RNA 1: B1 RNA 1
RNA 2: GGGAAUGGAUCCACAUCUACGAAUUCGUACCAUCAGAGAGGAUUAUCCGCUCACCGAGAUCGGAAGAGCACACGU
B29: target 1 MT 5'PFS GCG 3'PFS AUU (mixed)
RNA 1: B1 RNA 1
RNA 2: B1 RNA 2 with U27G, G28C, C29G, U52A, A53U, G54U
B30: target 1 MT 5'PFS CUG 3'PFS AAA (mixed)
RNA 1: B1 RNA 1
RNA 2: B1 RNA 2 with U27C, G28U, C29G, U52A, G54A
B31: target 1 MT 5'PFS GGG 3'PFS CUA (mixed)
RNA 1: B1 RNA 1
RNA 2: B1 RNA 2 with U27G, C29G, U52C, A53U, G54A
B32: target 1 MT 5'PFS GUC 3'PFS AAC (mixed)
RNA 1: B1 RNA 1
RNA 2: B1 RNA 2 with U27G, G28U, U52A, G54C

The data set has as its target T1, EsCas13d, nuclease-dead. The experiment in a line: crRNA (strand 1, pre-loaded); Mg2+; 40 mM Tris-HCl pH 7.5, 150 mM NaCl, 6 mM MgCl2, 1 mM DTT, 0.1% Tween-20, 0.2 mg/ml BSA; 25 C; 10 min per concentration, then washed. The following applies: tags: His6-TwinStrep-SUMO cleaved; N-terminal SNAP kept (SNAP-Surface 488); label: 3' end held by stalled T7 RNA polymerase.
Turning to B1, the Kd came out at 15.9 ± 4.1 nM.
The figure for B2 is about 72.5 nM; for B3 it is 9.6 ± 0.5 nM.
In turn, B4 returned a Kd of 23 ± 7 nM.
The same measure for B5: 99 ± 30 nM; for B6: 43 ± 15.5 nM.
Consider B7, for which binding was characterised by a dissociation constant (Kd) of 45.5 ± 20 nM.
The figure for B8 is 16.2 ± 2.5 nM; for B9 it is 14.7 ± 2.1 nM; for B10 it is 16 ± 4.5 nM.
With B11, the Kd is about 17 nM.
The figure for B12 is 37 ± 12.5 nM; for B13 it is 22 ± 6 nM.
The same measure for B14: about 25 nM.
The molecule B15 returned a Kd of 43 ± 8 nM.
In turn, B16 returned a dissociation constant (Kd) of 30.5 ± 8 nM.
The same measure for B17: about 28.5 nM; for B18: 57.5 ± 23 nM.
The same measure for B19: 90 ± 45 nM.
B20 had a Kd of 18.5 ± 5 nM.
The same measure for B21: about 65 nM; for B22: 31 ± 7 nM; for B23: 31.5 ± 7.5 nM.
B24 returned a Kd of 18.6 ± 3.55 nM.
The same measure for B25: 16.5 ± 7.5 nM; for B26: 21 ± 6.5 nM; for B27: 28 ± 12 nM.
The figure for B28 is 69 ± 9 nM.
On to B29, for which the Kd was 20 ± 7.5 nM.
The same measure for B30: 10.6 ± 2.7 nM.
The same measure for B31: 25.1 ± 5.2 nM; for B32: 36.5 ± 17.5 nM.
